Source: US20240270846A1 (published 2024)

B1: GLS3000 L27bE one-arm antibody (H chain CE115HA000) (antibody, human IgG1, kappa, L234A L235A, N297A, name in Kabat numbering)
heavy: QVQLVESGGGVVQPGRSLRLSCAASGFTFSNAWMHWVRQAPGKGLEWVAQIKAKSNNYATYYAESVKGRFTISRDDSKNSLYLQMNSLKTEDTAVYYCRYVHYGAYYGVDAWGQGTTVTVSSASTKGPSVFPLAPSSKSTSGGTAALGCLVKDYFPEPVTVSWNSGALTSGVHTFPAVLQSSGLYSLSSVVTVPSSSLGTQTYICNVNHKPSNTKVDKKVEPKSCDKTHTCPPCPAPEAAGGPSVFLFPPKPKDTLMISRTPEVTCVVVDVSHEDPEVKFNWYVDGVEVHNAKTKPREEQYASTYRVVSVLTVLHQDWLNGKEYKCKVSNKALPAPIEKTISKAKGQPREPQVYTLPPSRCELTKNQVSLSCAVKGFYPSDIAVEWESNGQPENNYKTTPPVLDSDGSFFLVSKLTVDKSRWQQGNVFSCSVMHEALHNHYTQKSLSLSPDYKDDDDK
chain: EPKSSDKTHTCPPCPAPELLGGPSVFLFPPKPKDTLMISRTPEVTCVVVDVSHEDPEVKFNWYVDGVEVHNAKTKPREEQYNSTYRVVSVLTVLHQDWLNGKEYKCKVSNKALPAPIEKTISKAKGQPREPQVCTLPPSRDELTKNQVSLWCLVKGFYPSDIAVEWESNGQPENNYKTTPPVLDSDGSFFLYSKLTVDKSRWQQGNVFSCSVMHEALHNRYTQKSLSLSP
light: DIVMTQSPLSLPVTPGEPASISCRSSQSEVHSNRNTYLHWYQQKPGQAPRLLIYKVSNRFSGVPDRFSGSGSGTDFTLKISRVEAEDVGVYYCGQGTQVPYTFGQGTKLEIKRTVAAPSVFIFPPSDEQLKSGTASVVCLLNNFYPREAKVQWKVDNALQSGNSQESVTEQDSKDSTYSLSSTLTLSKADYEKHKVYACEVTHQGLSSPVTKSFNRGEC
notes: one-arm antibody
B2: GLS3000 L27bF one-arm antibody (H chain CE115HA000) (antibody, human IgG1, kappa, L234A L235A, N297A, name in Kabat numbering)
heavy: QVQLVESGGGVVQPGRSLRLSCAASGFTFSNAWMHWVRQAPGKGLEWVAQIKAKSNNYATYYAESVKGRFTISRDDSKNSLYLQMNSLKTEDTAVYYCRYVHYGAYYGVDAWGQGTTVTVSSASTKGPSVFPLAPSSKSTSGGTAALGCLVKDYFPEPVTVSWNSGALTSGVHTFPAVLQSSGLYSLSSVVTVPSSSLGTQTYICNVNHKPSNTKVDKKVEPKSCDKTHTCPPCPAPEAAGGPSVFLFPPKPKDTLMISRTPEVTCVVVDVSHEDPEVKFNWYVDGVEVHNAKTKPREEQYASTYRVVSVLTVLHQDWLNGKEYKCKVSNKALPAPIEKTISKAKGQPREPQVYTLPPSRCELTKNQVSLSCAVKGFYPSDIAVEWESNGQPENNYKTTPPVLDSDGSFFLVSKLTVDKSRWQQGNVFSCSVMHEALHNHYTQKSLSLSPDYKDDDDK
chain: EPKSSDKTHTCPPCPAPELLGGPSVFLFPPKPKDTLMISRTPEVTCVVVDVSHEDPEVKFNWYVDGVEVHNAKTKPREEQYNSTYRVVSVLTVLHQDWLNGKEYKCKVSNKALPAPIEKTISKAKGQPREPQVCTLPPSRDELTKNQVSLWCLVKGFYPSDIAVEWESNGQPENNYKTTPPVLDSDGSFFLYSKLTVDKSRWQQGNVFSCSVMHEALHNRYTQKSLSLSP
light: DIVMTQSPLSLPVTPGEPASISCRSSQSFVHSNRNTYLHWYQQKPGQAPRLLIYKVSNRFSGVPDRFSGSGSGTDFTLKISRVEAEDVGVYYCGQGTQVPYTFGQGTKLEIKRTVAAPSVFIFPPSDEQLKSGTASVVCLLNNFYPREAKVQWKVDNALQSGNSQESVTEQDSKDSTYSLSSTLTLSKADYEKHKVYACEVTHQGLSSPVTKSFNRGEC
notes: one-arm antibody
B3: GLS3000 L27bM one-arm antibody (H chain CE115HA000) (antibody, human IgG1, kappa, L234A L235A, N297A, name in Kabat numbering)
heavy: QVQLVESGGGVVQPGRSLRLSCAASGFTFSNAWMHWVRQAPGKGLEWVAQIKAKSNNYATYYAESVKGRFTISRDDSKNSLYLQMNSLKTEDTAVYYCRYVHYGAYYGVDAWGQGTTVTVSSASTKGPSVFPLAPSSKSTSGGTAALGCLVKDYFPEPVTVSWNSGALTSGVHTFPAVLQSSGLYSLSSVVTVPSSSLGTQTYICNVNHKPSNTKVDKKVEPKSCDKTHTCPPCPAPEAAGGPSVFLFPPKPKDTLMISRTPEVTCVVVDVSHEDPEVKFNWYVDGVEVHNAKTKPREEQYASTYRVVSVLTVLHQDWLNGKEYKCKVSNKALPAPIEKTISKAKGQPREPQVYTLPPSRCELTKNQVSLSCAVKGFYPSDIAVEWESNGQPENNYKTTPPVLDSDGSFFLVSKLTVDKSRWQQGNVFSCSVMHEALHNHYTQKSLSLSPDYKDDDDK
chain: EPKSSDKTHTCPPCPAPELLGGPSVFLFPPKPKDTLMISRTPEVTCVVVDVSHEDPEVKFNWYVDGVEVHNAKTKPREEQYNSTYRVVSVLTVLHQDWLNGKEYKCKVSNKALPAPIEKTISKAKGQPREPQVCTLPPSRDELTKNQVSLWCLVKGFYPSDIAVEWESNGQPENNYKTTPPVLDSDGSFFLYSKLTVDKSRWQQGNVFSCSVMHEALHNRYTQKSLSLSP
light: DIVMTQSPLSLPVTPGEPASISCRSSQSMVHSNRNTYLHWYQQKPGQAPRLLIYKVSNRFSGVPDRFSGSGSGTDFTLKISRVEAEDVGVYYCGQGTQVPYTFGQGTKLEIKRTVAAPSVFIFPPSDEQLKSGTASVVCLLNNFYPREAKVQWKVDNALQSGNSQESVTEQDSKDSTYSLSSTLTLSKADYEKHKVYACEVTHQGLSSPVTKSFNRGEC
notes: one-arm antibody
B4: GLS3000 L27bI one-arm antibody (H chain CE115HA000) (antibody, human IgG1, kappa, L234A L235A, N297A, name in Kabat numbering)
heavy: QVQLVESGGGVVQPGRSLRLSCAASGFTFSNAWMHWVRQAPGKGLEWVAQIKAKSNNYATYYAESVKGRFTISRDDSKNSLYLQMNSLKTEDTAVYYCRYVHYGAYYGVDAWGQGTTVTVSSASTKGPSVFPLAPSSKSTSGGTAALGCLVKDYFPEPVTVSWNSGALTSGVHTFPAVLQSSGLYSLSSVVTVPSSSLGTQTYICNVNHKPSNTKVDKKVEPKSCDKTHTCPPCPAPEAAGGPSVFLFPPKPKDTLMISRTPEVTCVVVDVSHEDPEVKFNWYVDGVEVHNAKTKPREEQYASTYRVVSVLTVLHQDWLNGKEYKCKVSNKALPAPIEKTISKAKGQPREPQVYTLPPSRCELTKNQVSLSCAVKGFYPSDIAVEWESNGQPENNYKTTPPVLDSDGSFFLVSKLTVDKSRWQQGNVFSCSVMHEALHNHYTQKSLSLSPDYKDDDDK
chain: EPKSSDKTHTCPPCPAPELLGGPSVFLFPPKPKDTLMISRTPEVTCVVVDVSHEDPEVKFNWYVDGVEVHNAKTKPREEQYNSTYRVVSVLTVLHQDWLNGKEYKCKVSNKALPAPIEKTISKAKGQPREPQVCTLPPSRDELTKNQVSLWCLVKGFYPSDIAVEWESNGQPENNYKTTPPVLDSDGSFFLYSKLTVDKSRWQQGNVFSCSVMHEALHNRYTQKSLSLSP
light: DIVMTQSPLSLPVTPGEPASISCRSSQSIVHSNRNTYLHWYQQKPGQAPRLLIYKVSNRFSGVPDRFSGSGSGTDFTLKISRVEAEDVGVYYCGQGTQVPYTFGQGTKLEIKRTVAAPSVFIFPPSDEQLKSGTASVVCLLNNFYPREAKVQWKVDNALQSGNSQESVTEQDSKDSTYSLSSTLTLSKADYEKHKVYACEVTHQGLSSPVTKSFNRGEC
notes: one-arm antibody

target: T1, CD3 epsilon homodimer protein (UniProt P07766 23-126); assay: SPR, CD3e homodimer on chip;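 further: surface plasmon resonance at 25 degrees C, antibodies flowed as analyte over CD3 epsilon homodimer amine-coupled to a CM4 chip, running buffer HBS-EP+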
T1 construct: also called CD3 (CD3 epsilon)
T1 sequence (P07766 23-126): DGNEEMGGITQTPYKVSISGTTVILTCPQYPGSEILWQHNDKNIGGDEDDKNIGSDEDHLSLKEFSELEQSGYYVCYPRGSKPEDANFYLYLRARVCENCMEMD

Compared with B1, B2 is higher in “ratio of amounts bound (altered form / unaltered GLS3000 antibody)” value: 0.17 for the first, 0.42 for the second.

Going from B3 to B4, the “ratio of amounts bound (altered form / unaltered GLS3000 antibody)” value rises from 0.71 to 1.19.
